In the test the target is recombinant SARS (1-1190) (Beta Lifescience, BLIT-0210) (SARS-CoV), P59594. The note with it: remark: other sources report otherwise.

Several values for one entry are separate records, joined by “and”; a condition that tells them apart may be missing. Equal values may be shown once.

B1: clone 5E9 (antibody, V domains shown)
VH: EVQLVESGGGLVQPGGSLRLSCAASGFTFTTYDMGWVRQAPGKGPEWVSLISSGGSNTWYDDSVKGRFTISRDNSKNTLYLQMNSLRAEDTAVYYCAKEKYPYSDCDYWGQGTLVTVSS
For the molecule B1, the O.D. was 0.294 O.D. and 0.278 O.D.

B2: clone 6D9 (antibody, V domains shown)
VH: EVQLVESGGGLVQPGGSLRLSCAASGFTFTDYDMGWVRQAPGKGPEWVSLISGDSGNTWYDDSVKGRFTISRDNSKNTLYLQMNSLRAEDTAVYYCAKYRGTTKDYWGQGTLVTVSS
As for B2, the O.D. is 0.389 O.D. and 0.386 O.D.

The record behind these values is patent US20230417748A1.
